Measurements from the nanobody polyreactivity screen of Harvey et al. (2022).

Assay: yeast display, Sf9 membrane polyspecificity reagent, FACS + sequencing; frameworks hold sequencing errors
How it was run: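 Galactose-induced (36–48 hours) yeast carrying a synthetic nanobody display library were exposed to 10% biotinylated, detergent-solubilized Sf9 membrane reagent at 4 °C for 1 hour. FACS followed streptavidin microbead enrichment, using low and high (top ~1%) gates for expression (anti-HA) and reagent binding (streptavidin). Colony PCR, MiSeq 2 × 250 sequencing and CDR-length filtering followed. Labels for polyreactivity reflect the gate of origin.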

Sequence	polyreactivity (PSR sort gate)
QVQLVESGGGLVQAGGSLRLSCAASGITSYPYAMGWYRQAPGKERELVAAISKRGGGTYYADSVKGRFTISRDNAKNTVYLQMNSLKPEDTAVYYCAKSWGPTTYKIVPAYGYWGQGTQVTVSS	high polyreactivity
IIQAGGSLRLSCAASGRTFSGYAMGWYRQAPGKERELIDDITSGGSTYYADSVKGRFTISRDNAKNTVYIQMNSLKPEDTAVYYCAAERHIRSFSSSRTYEFGYWGQGTQVTVSS	low polyreactivity
QVQLVESRGGLVQAGGSLRLSCAASGSIFLYYARGWYIQAPGKERELDAAISISGGRTYYADSVKGRFTISRDNSKNTVYIQMNSLKPEDTAVYYCATKGYTGYAYRYGYWGQGTQVTVSS	high polyreactivity
QVQLVESGGGLVQAGGSLRLSCAASGFTFSFYARGWYIQAPGKERELVAAIDRSGGSTYYADSVKGRFTISRDNAKNTVYLQMNSLKPEDTAVYYCAATVFYGYYYWGQGTQVTVSS	high polyreactivity
QVQLVESGGGLVQAGGSLRLSCAASGRNFYSNAMGWYRQAPGKERELVAAIRWRDGSTYYADSVKGRFTISRDNAKNTVYLQMNSLKPEDTAVYYCAAVYWGEEYEYWGQGTQVTVSS	low polyreactivity
QFQLVESGGGLDQAGGSLRLSCAASGFIFSWYAMGWYRQAPGKERELVAAINWSGGSTYYADSVKGRFTISRDNAKNTVYLQMNSLKPEDTAVYYCAAVRQSQFEYWGQGTQVTVSS	high polyreactivity
QVQLVESGGRLVQAGGSLRLSCAASGRIFSRYAMGWYRPAPGKERELVATITWSGGSTYYADSVKGRFTISRDNAKNTVYLQMNSLKPEDTAVYYCNADVTYLYKMDYWGQGTQVTVSS	low polyreactivity
QVQLVESGGGLVQAGGSLRLSCAASGSIFYRNTMGWYRQAPGKERELVASINTGTGTYYADSVKGRFTISRDNAKNTVYLQMNSLKPEDTAVYYCNKVSYVKYGYWGQGTQVTVSS	high polyreactivity
QVQLVESGGGLVQAGGSLRLSCAASGIIFITYAMGWYRQAPGKERELVAVISKGGGRTYYADSVKGRFTISRDNAKNTVYLQMNSLKPEDTAVYYCAARSSSNRYVHMDYWGQGTQVTVSS	high polyreactivity
QVQLVESGGGLVQAGGSLRLSCAASGFIFYAYAMGWSRQAPGKERELVAAISGSGGSTYYADSVKGRFTISRDNAKNTVYLQMNSLKPEDTAVYYCAARSRVSNRSYYYWGQGTQVTVSS	high polyreactivity
QVQLVESGGGLVQAGGSIRLSCAASGSIFVSNAMGWYRQAPGKERELVAAISGGGSTYYADSVKGRFTISRDNAKNTVYLQMNSLKPEDTAVYYCAKKGGHRTYGYDSWGQGTQVTVSS	low polyreactivity
QVQLVESGGGLVQAGGSLRLSCAASGRIFWYNAMGWYRQAPGKERELVAGITSGGRTNYADSVKGRFTISRDNAKNTVYLQMNSLKPEDTAVYYCAADVPPGEVVTNDYWGQGTQVTVSS	low polyreactivity
QVQLVESGGGLVQAGGSLRLSCAASGFIFPGNMGWYRQAPGKERELVAAISWSGGSTRYADSVKGRFTISRDNAKNTVYLQMNSLKPEDTAVYYCAASLSGKRFTKRYYWGQGTQVTVSS	high polyreactivity
QVQLVESGGGLVQAGGSLRLRCAASGRTFGEYTMGWYRQAPGKERELVAAISSAGRTNYADSVKGRFTISRDNAKNTVYLQMNSLKPEDSGVYYCAADWTDDVRGYDYWGQGTQVTVSS	low polyreactivity
QVQLVESGGGLVQAGGSLRLSCAASGRIFFVYAMGWYRQSPGKERELVAAISVSDVSTSYADSVKGRFTISRDIAKNTVYLQMNSLKQEDTAVYYCNAGFRFYVYSRIGGEDYWGQGTQVTVSS	low polyreactivity
QVQLVESGGGLVQAGGSLRLSCAASGRTFVGYAMGWDRQAPGKERELVATITSSGRTNYADSVKGRCTISRDNAKNTVYLQMNSLKPEDTAVYYCNKQRTRWYDYWGQGTQVTVSS	high polyreactivity
QVQLVESGEGIVQAGGSLRLSCAASGSIFGIYVMGWYRQAPGKERELVAAITFGGGSTYYADSVKGRFTISRYNAKNSVYLKMNRLKPEDTSVYYCAAKSYDEGLYRRPRDYWGQGTQVTESS	high polyreactivity
QVQLVESGGGLLQAGGSLRLSCAASGFIFVDNAMGWYRQAPGKERELVAAITSGASTYYADSVKGRFTISRDNAKNTVYLQMNSLKPEDTAVYYCAADYLYYYTWYNYWGQGTQVTVSS	low polyreactivity
QVQLVESGGGLVQAGGSLRLSCASSGSKLGINVMGWYRQAPGKERELVAAISRRGGSTNYADSVKGRFTISRDNAKNTVYLQMNSLKPEDTAVYYCNALGHVQGYDYWGQGTQVTVSS	high polyreactivity
QVQLVESGGGIVQAGGSLRLSCAASGRIFVGYAMVWYRQAPGKERELVAAISRGGSTNYADSVKGRFTISRDNAKNTVYLQMNSLKPEDTAVYYCAKTYRTRWWGNGGDFWGQGTQVTVSS	high polyreactivity
QVQLVESGGGLVQAGGSLRLSCAASGRIFRSYALGWYRQAPGKERELAAAISYGGGSTYYADSVKGRFTISRDNAKNTVYLQMNSLKPEDTAVYYCAARGYSRPMDYWGQGTQVTVSS	high polyreactivity
QVQLVESGGGLVQAGGSLRLSCAASGSTFKTYAMGWYRQAPGKERELVAAITSSGGRTYYADSVKGRFTISRDNAKNTVYLQMNSLKPEDTAVYYCAAGRRSYNQLDYWGQGTQVTVSS	high polyreactivity

Sequence	polyreactivity (PSR sort gate)
QVQLVESGVGLVQAGRSLRLSCAASGFTFGAYAMGWYRQAPGKERELVAAITRRGGSTYYADSVKGRFTISRDNAKNTVYLQMNSLKPEDTAVYYCAARRGRVLTKVSGYYSWGQGTQVTVSS	high polyreactivity
QVQLVESGGGLVQAGGSLRLSSAASGFTFEFYAMGWYRQAPGKERELVAAITGSGGSTYYADSVKGRFTISRDNAKNTVYLQMNCLKPEDTAVYYWNAVTRRSAQVGHDYWGQVTQVTVSS	high polyreactivity
QVQLVESGGGLVKAGGSLRLSCAASGSIFLYYSMGWYRQAPGKERELVAAITGGGCTNYADSEKGRFTISRDHAKNNVYLLMNSLKPEDTSVYYWAADASGQFPYSYYNYDYDYWGQGTQVSVSS	low polyreactivity
QVQLVESGGGLVQAGGSLRLICAASGIIFDVYAMGWYRQAPGKERELVAAISYGGGTTYYADSVKGRFTISRDNAKNTVYLQMNSLKPEDTAVYYCAADSYRSIGDDYWGQGTQVTVSS	high polyreactivity
QVQLVESGGGLVQAGGSLRLSCAASGFIFTRNVMGWYRQAPGKERELVAAISSGGRTYYADSVKGRFTISRDNAKNTVYLQMNRLKPEDTAVYYCSIVSKFTGDYGYWGQGTQVTVSS	high polyreactivity
QVQLVESGGGLVQAGGSLRLSCAASGLTFGRNAMGWYRQAPGKERELVAAISRSGGRTSYADSVKGRFTISRDNAKNTVYLQMNSLKPEDTAVYYCAARSDVYTHDYWGQGTQVTVSS	high polyreactivity
QVQLVESGGGLVQAGGSLRLSCAASGRIYSWYAMGWYRQAPGKERELVAVISRGVSTYYADSVKGRFTISRDNAKNTVYLQMNSLKPEDTAVYYCAAYSGGRYYYWGQGTQVTVSS	low polyreactivity
QVQLVESGGGLVQAGGSLRLSCAASGSTSTTYAMGWYRQAPWKERELVAAISWGGTRTYYADSVKGRFTISRDNAKNTVYLQMNSLKPEDTAVYYCNAGRRSSSGHYGYNYWGQGTQVTVSS	high polyreactivity
QVQLVESGGGLVQAGGSLRLSCAASGFIFGYNAMGWYRQAPGKERELVAAISSGGSTYYADSVKGRFTISRDNAKNTVYLQMKSLKPEDTAVYYCAVELGYPIQSYALWWDFEYWGQGTQVTVSS	low polyreactivity
QVQLVETGGGLVQAGGSLRLSCAASGFIQSGYAMGWYRQAPGKERELVATITWRDGSTYYADSVKGRYTISRDNAKNTVYLQKNSLKPEDTEVYYCAVAAYSRRSPYYHYNYWGQGTQVTVSS	high polyreactivity
QVQLVESGGGLVQAGGSLSLSCAASGNTFWGYAMGWYRQAPGKEREFVARINWSGGRTYYAESVKGRFTISRDNAKNTVYLQMNSLKPEDTAVYYCAATSLIYGYRTYDYWGQGTQVTVSS	high polyreactivity
QVQLVESGGGLVQAGGSLRLSCAASGVNAMGWYRQAPGKEREFVAAITSIGGSTYYADSVKGRFTISRDNAKNTVYLQLNSLKPEDTAVYDCNTDRGPVKVSPLYESWGQGTQVTVSS	low polyreactivity
QVQLVESGGGLVQAGGSLRLSCAASGITFWRYAMGWYRQAPGKERELVAAINSGGGTKFADSVKGRFTISRDNAKNTVYLQMNSLKPEDTAVYYCAAKYVFTLHRYDYWGQGTQVTVSS	high polyreactivity
PVQLVESGGGLVQAGGSLRLSCAASGSTFYPNAMGWYRQAPGKEWELVAASTAGGSTYYADSVKGRFTISRDNAKNTVYLQMTSLKPEDTAVYSCAADFYWYWWQDWYDYWGQGTQVTVSS	high polyreactivity
QVQLVESGGGLVQAGGSLRLSCAASGSMFTGYDMGWYRQAPGKERELVAAITASGSGTYYADSVKGRFTISRDNAKNTVYLQMNSLKPEDTAVYYGNAPYLFYRGDSDHYYYNEGGYWGQGTQVTVSS	high polyreactivity
QVQLVESGGGLVQAGGRLRLSCAGSGSTSYGYAMGWYRQAPGKERELVAAITSGGRTYYADSVKGRFTISRDNAKNTVYFQMNSLKPEDTAVYYCAAVRALRKVRDYYYWGQGTQVTVSS	high polyreactivity
QVQLVESGGGLVQAGGSLRLSCAASGFTFRHNTMGWYRQAPGKERELVAAISIGGRTYYADSVKGRFTISRDNAKNTVYLQMNSLKTEDSAVYYCANLSGGQSPGYDYWGQGTQVTVSW	high polyreactivity
QVQLVESGGGLLQAGGSLRLSCAASGFTFSRYAMGWYRQAPRKEMELVATISRSGGTTYYADSVKGRFTISRDNAKNTVYLLMNSLKPEDTAVYYGNTDKIWGLQYYYWGQGTQVTVSS	high polyreactivity
QVQLVESGGGLVQAGASLRLSCAASGITFVHYAMGWYRQAPWKEREFVAAITKGGGSTSYADSVKGRFTISRDNAKNTVYLQMNSLKPEDTAVDYCAKRYWGTKYGITARFDYWGQGTQVTVSS	high polyreactivity
QVQLVESGGGLVQAGGSLRLSCAASGRTFFRYAMGWYRQAPGKERELVAAISSRGGSTYYADSVKGRFTISRDNAKNTVYLQMNSLKPEDTAVYYCNAAAFINFILYDYWGQGTQVTVSS	high polyreactivity
QVQLVESGGGLVQAGGSLRLSCAASGFTFHRYDMVWYRQAPGKERELVAGITRRSGSTFYADSVKGRFTISRDNAKNTVYLQMNSLKPEDTAVYYCAATVPGMHWIYDYWGQGTQVTVSS	high polyreactivity
